# Experimental data: article PMC9129042 (PLoS ONE, 2022)
# Target: WA-1 NTD probe (SARS-CoV-2 WA-1, UniProt P0DTC2, biotin on the AVI tag (…))
# Test: BLI
# Details: both partners purified
binder,measurement,value
"5–7 (antibody, V domains shown, also called antibody 5-7) VH: QVQLVQSGAEVKKPGASVKVSCKASGYTFTSYYMHWVRQAPGQGLEWMGVINPSGGSTSYAEKFRGRVTMTRDTSTSTVYMELSSLRSEDTAVYYCARDREPHSDSSGYWDSLKYYYYYALDVWGQGTTVTVSS VL: AIQLTQSPSSLSASVGDRVTITCRASQGISSYLAWYQQKPGKAPELLIYAASTLQSGVPSRFSGSGSGTDFTLTISSLQPEDFATYYCQQLNTYPFTFGPGTKVDIK",binding result,binds
